For ten molecules, Kd results are on record in patent US20230406886A1 (DAEGU GYEONGBUK INSTITUTE OF SCIENCE AND TECHNOLOGY, published 2023).

In the assay the target is SARS-CoV2 spike protein S1 receptor binding domain (RBD) (SARS-CoV2, UniProt P0DTC2 319-541).

B1: COVID-19 therapeutic protein CTP-δ1 (designed binder)
chain: GEFADKLKNELAKTEEQAKTFLDKFNHEAEDLFYQSSGLGKGDFR
As a reminder, the Kd is the constant that tells how readily two partners part at equilibrium. Lower therefore signals tighter binding. For the molecule B1, the equilibrium dissociation constant (Kd) is 56.3 nM.

B2: COVID-19 therapeutic protein CTP-γ1 (designed binder)
chain: MKASSLADNVYNTNITKENVQNMNEEQAKTFLDKFNHEAEDLFYQSSGLGKGDFR
The molecule B2 returned a Kd of 47.5 nM.

B3: COVID-19 therapeutic protein CTP-γ2 (designed binder)
chain: MKESSLADNVYNTNITKENVQNMNEEQAKTFLDKFNHEAEDLFYQSSGLGKGDFR
B3 yielded a dissociation constant (Kd) of 42.8 nM.

B4: COVID-19 therapeutic protein CTP-γ3 (designed binder)
chain: MKASELADNVYNTNITKENVQNMNEEQAKTFLDKFNHEAEDLFYQSSGLGKGDFR
Take B4: the Kd came out at 39.2 nM.

B5: COVID-19 therapeutic protein CTP-α1 (designed binder)
chain: MKSELASNVYNTNITKENVQNMNEEQAKTFLDKFNHEAEDLFYQSSGLGKGDFR
For B5, the affinity, expressed as Kd, was 37.8 nM.

B6: COVID-19 therapeutic protein CTP-β2 (designed binder)
chain: MESELASVNYNTNITKENVQANGEEQAKTFLDKFNHEAEDLFYQSSGLGKGDFR
As to B6, the Kd was 42.9 nM.

B7: COVID-19 therapeutic protein CTP-α3 (designed binder)
chain: MKSQLAENVYNTNITKENVQNMNEEQAKTFLDKFNHEAEDLFYQSSGLGKGDFR
As for B7, binding was put at a Kd of 35.7 nM.

B8: COVID-19 therapeutic protein CTP-α2 (designed binder)
chain: MKSDLASNVYNTNITKENVQNMNEEQAKTFLDKFNHEAEDLFYQSSGLGKGDFR
Regarding B8, binding was put at a Kd of 50.4 nM.

B9: COVID-19 therapeutic protein CTP-β3 (designed binder)
chain: MESELASNVYNTNITKENVQNMNEEQAKTFLDKFNHEAEDLFYQSSGLGKGDFR
On to B9, for which the Kd is 56.4 nM.

B10: COVID-19 therapeutic protein CTP-β1 (designed binder)
chain: MKSELASVNYNTNITKENVQANGEEQAKTFLDKFNHEAEDLFYQSSGLGKGDFR
Take B10: the dissociation constant (Kd) was 82 nM.
